One may read the EC50 as the concentration at which the effect is half-maximal.

The target in test [1] is CrtJ (Rhodobacter capsulatus) (UniProt P26167). Put plainly: MST; Monolith NT.115; RED-NHS-labeled CrtJ kept constant (200 or 500 nM), AerR varied from µM to nM; 20 mM Tris-HCl pH 8.0, 200 mM NaCl; AerR with bound hydroxyl-Cbl (OH-Cbl).
For test [2] the target is unchanged. The experiment in a line: MST; Monolith NT.115; RED-NHS-labeled CrtJ kept constant (200 or 500 nM), AerR varied from µM to nM; 20 mM Tris-HCl pH 8.0, 200 mM NaCl; SAerR with bound Adenosyl-Cbl (Ado-Cbl).
Test [3] concerns the target T1, CrtJ (Rhodobacter capsulatus, UniProt P26167 1-469, labeled using RED-NHS protein labeling kit (Nanotemper)).
T1 construct: CrtJ, redox-responding transcription factor (aerobic repressor of photosystem genes) of Rhodobacter capsulatus; also called SUMO-CrtJ; PpsR (name in some other species); source: recombinant protein from plasmid pSUMO-CrtJ (PMID: 22715852)
T1 sequence (looked up): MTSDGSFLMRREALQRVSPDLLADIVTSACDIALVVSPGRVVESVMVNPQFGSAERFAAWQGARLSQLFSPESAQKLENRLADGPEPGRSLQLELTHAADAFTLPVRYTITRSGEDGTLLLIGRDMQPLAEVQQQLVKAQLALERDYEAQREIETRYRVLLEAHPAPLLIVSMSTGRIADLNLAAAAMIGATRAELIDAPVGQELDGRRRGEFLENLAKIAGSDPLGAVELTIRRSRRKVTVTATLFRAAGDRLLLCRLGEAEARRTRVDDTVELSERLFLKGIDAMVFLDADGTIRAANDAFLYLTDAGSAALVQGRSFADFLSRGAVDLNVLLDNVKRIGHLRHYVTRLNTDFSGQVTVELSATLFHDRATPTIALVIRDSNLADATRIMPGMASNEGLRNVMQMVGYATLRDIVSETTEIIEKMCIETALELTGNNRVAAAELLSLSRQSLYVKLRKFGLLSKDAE
The experiment in a line: MST; Monolith NT.115; RED-NHS-labeled CrtJ kept constant (200 or 500 nM), AerR varied from µM to nM; 20 mM Tris-HCl pH 8.0, 200 mM NaCl; AerR with bound hydroxyl-Cbl (OH-Cbl). The conditions noted are these: both partners purified.

Consider “SAerR (short isoform of AerR) (natural protein)”, for which the EC50 in test [1] and in test [2] was 2100 nM throughout.

B1: LAerR (long isoform of AerR) (natural protein)
chain: MNGVAELQTVLVNRMVELATGPELGAMDLLFDEFRAAHVPVEEMATHYIPEAARQIGAAWDSDRIGFAQVTIAISRLQELLHALQTLVTADSVGCANGATVLLIVPPGEQHTLGALIVAMELRRRGVSVRIVFAPGLSDLSRLMATTRFDAALITVGSMDRVEICAKLVKTLSSLTKGRMRVAIGGAIVSQRAEALARTGADLVTNDLSLVISEFSLV
The molecule B1 came in with an EC50 in test [3] of 7800 ± 1200 nM.
